In general, stoichiometry N refers to the number of molecules, sites or subunits per partner or assembly.

Experiment [1] deals with S-nitrosylated human GAPDH (hGAPDH treated with S-nitrosocysteine, CysNO) (human). The experiment can be described thus: native MS.
For experiment [2], the target named is human glyceraldehyde-3-phosphate dehydrogenase (hGAPDH), wild type (human). The experiment can be described thus: SEC.
Experiment [3] shares this target. Nature of the experiment: native MS.
Experiment [4] has the same target. The experiment can be described thus: native MS. This is another data set of the same source.
Experiment [5] has the same target. Nature of the experiment: SEC. This is another data set of the same source. (In general: In gel filtration, larger molecules generally elute earlier.)
The target in experiment [6] is porcine glyceraldehyde-3-phosphate dehydrogenase (pGAPDH), wild type (pig (Sus scrofa)). The experiment can be described thus: SEC.
Experiment [7] has the same target. Nature of the experiment: SEC. This is another data set of the same source.
Experiment [8] shares this target. The experiment can be described thus: SEC. This is another data set of the same source.
For experiment [9] the target is unchanged. The experiment can be described thus: SEC. The source holds these as a separate data set.
For experiment [10] the target is unchanged. Nature of the experiment: SEC. The source holds these as a separate data set.
For experiment [11] the target is unchanged. The experiment can be described thus: SEC. This is another data set of the same source.

Values joined by “and” are separate entries in the source; they are usually repeats but may differ in a detail not shown here. Equal entries are not always repeated. Where two headings read alike, the source gives them in different places.

As for “S-nitrosylated human GAPDH (hGAPDH treated with S-nitrosocysteine, CysNO) (enzyme)”, the stoichiometry N in experiment [1] was determined as 4.

As to “human glyceraldehyde-3-phosphate dehydrogenase (hGAPDH), wild type (enzyme)”, the stoichiometry N in [2], in experiment [3], in [4] and in experiment [5] was 4 in each case.

Consider “porcine glyceraldehyde-3-phosphate dehydrogenase (pGAPDH), wild type (enzyme)”, for which the stoichiometry N in experiment [6] was 2; in [7] it was 4; in experiment [8], 4; in experiment [9], 4; in [10] it was 4 and 2; in experiment [11], 4.

The record behind these values is paper doi:10.1101/2024.11.11.622902.
